Test results published in article PMC10093973, “The RNA-Binding and RNA-Melting Activities of the Multifunctional Protein Nucleobindin 1” (International Journal of Molecular Sciences, 2023).

T1: NUCB1 ΔN (Homo sapiens) (UniProt Q02818)
T1 sequence: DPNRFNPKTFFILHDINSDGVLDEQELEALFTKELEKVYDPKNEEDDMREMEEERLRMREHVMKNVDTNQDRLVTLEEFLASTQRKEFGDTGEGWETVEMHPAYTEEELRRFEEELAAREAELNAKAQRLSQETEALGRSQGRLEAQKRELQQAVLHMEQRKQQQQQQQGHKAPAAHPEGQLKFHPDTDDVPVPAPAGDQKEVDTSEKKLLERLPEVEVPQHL

T2: NUCB1 ΔZ (Homo sapiens) (UniProt Q02818)
T2 sequence: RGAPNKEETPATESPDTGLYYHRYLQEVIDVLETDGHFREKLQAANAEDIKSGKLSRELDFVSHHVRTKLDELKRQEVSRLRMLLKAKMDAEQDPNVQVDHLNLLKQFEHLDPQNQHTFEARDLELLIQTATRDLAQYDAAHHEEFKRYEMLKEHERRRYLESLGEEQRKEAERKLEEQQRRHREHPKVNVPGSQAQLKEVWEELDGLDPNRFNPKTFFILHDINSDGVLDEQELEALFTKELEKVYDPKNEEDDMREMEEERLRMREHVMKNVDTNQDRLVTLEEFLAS

T3: NUCB1 CaBD (Homo sapiens) (UniProt Q02818)
T3 sequence: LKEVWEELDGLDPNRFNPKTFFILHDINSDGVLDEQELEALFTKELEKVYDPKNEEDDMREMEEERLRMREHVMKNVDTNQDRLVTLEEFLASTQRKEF

T4: NUCB1 ΔZ (Homo sapiens, UniProt Q02818 31-320)
T4 sequence: T2 sequence

T5: NUCB1 CaBD (Homo sapiens, UniProt Q02818 228-326)
T5 sequence: T3 sequence

T6: NUCB1 ΔN (Homo sapiens, UniProt Q02818 239-461)
T6 sequence: T1 sequence

B1: Nucleobindin 1 (NUCB1) lacking the signal peptide (1-30 aa) (natural protein, human, UniProt Q02818 31-461, looked up)
chain: RGAPNKEETPATESPDTGLYYHRYLQEVIDVLETDGHFREKLQAANAEDIKSGKLSRELDFVSHHVRTKLDELKRQEVSRLRMLLKAKMDAEQDPNVQVDHLNLLKQFEHLDPQNQHTFEARDLELLIQTATRDLAQYDAAHHEEFKRYEMLKEHERRRYLESLGEEQRKEAERKLEEQQRRHREHPKVNVPGSQAQLKEVWEELDGLDPNRFNPKTFFILHDINSDGVLDEQELEALFTKELEKVYDPKNEEDDMREMEEERLRMREHVMKNVDTNQDRLVTLEEFLASTQRKEFGDTGEGWETVEMHPAYTEEELRRFEEELAAREAELNAKAQRLSQETEALGRSQGRLEAQKRELQQAVLHMEQRKQQQQQQQGHKAPAAHPEGQLKFHPDTDDVPVPAPAGDQKEVDTSEKKLLERLPEVEVPQHL
notes: the C-terminal limit 461 is the one printed for NUCB1 ΔN, which was made with the same reverse primer; Cloned in pET-28a between EcoR I and Hind III from a HEK293T cDNA library; No removal of the His6 tag is described; also called Calnuc; intact NUCB1; source: E. coli BL21(DE3)/pRARE, purified (Ni-NTA agarose; analysed by SEC on Superdex 200)
B2: NUCB1 ΔN (239-461 aa) (domain or fragment, human, UniProt Q02818 239-461, looked up)
chain: T1 sequence
notes: Cloned in pET-28a; source: E. coli BL21(DE3)/pRARE, purified (Ni-NTA agarose; analysed by SEC on Superdex 200)
B3: miR-200a-3p (ssRNA)
RNA: GUGGUCAGUCGAGUGGUAACACUGUCUGGUAACGAUGU

Tests used:
[1] = biological target: T1, NUCB1 ΔN (Homo sapiens); assay: SPR; conditions: SPR: 50 mM Tris-HCl pH 8.0, 200 mM NaCl, 0.1% Tween-20, with or without 2 mM CaCl2, 25 °C; 5'-biotinylated RNA immobilized, NUCB1 as analyte, 1:1 model
[2] = biological target: T2, NUCB1 ΔZ (Homo sapiens); assay: SPR; conditions: SPR: 50 mM Tris-HCl pH 8.0, 200 mM NaCl, 0.1% Tween-20, with or without 2 mM CaCl2, 25 °C; 5'-biotinylated RNA immobilized, NUCB1 as analyte, 1:1 model
[3] = biological target: T3, NUCB1 CaBD (Homo sapiens); assay: SPR; conditions: SPR: 50 mM Tris-HCl pH 8.0, 200 mM NaCl, 0.1% Tween-20, with or without 2 mM CaCl2, 25 °C; 5'-biotinylated RNA immobilized, NUCB1 as analyte, 1:1 model
[4] = biological target: the molecule itself; assay: SEC; size-exclusion chromatography of the final preparations on Superdex 200 in 150 mM NaCl, 50 mM Tris-HCl (pH 8.0); oligomeric state of each protein
[5] = biological target: T4, NUCB1 ΔZ; assay: SPR; SPR: 50 mM Tris-HCl pH 8.0, 200 mM NaCl, 0.1% Tween-20, with or without 2 mM CaCl2, 25 °C; 5'-biotinylated RNA immobilized, NUCB1 as analyte, 1:1 model; conditions: protein: recombinant; tags: N-terminal His6; label: 5'-biotin
[6] = biological target: T5, NUCB1 CaBD; assay: as above; conditions: protein: recombinant; tags: N-terminal His6; label: 5'-biotin
[7] = biological target: T6, NUCB1 ΔN; assay: as above; conditions: protein: recombinant; tags: N-terminal His6; label: 5'-biotin

Molecule	Kd [1] [nM]	Kd [2] [nM]	Kd [3] [nM]	stoichiometry N [4]	other results
GUGGUCAGUCGAGUGGAAAAAAAAAAAAAAAAAA [A-rich]	1.4	0.3	5.7	–	–
GUGGUCAGUCGAGUGGUUUUUUUUUUUUUUUUUU [U-rich]	1.7	0.4	0.2	–	–
GUGGUCAGUCGAGUGGGGGGGG [G-rich]	5.3	3.1	18.2	–	–
B1	–	–	–	2	–
B2	–	–	–	2	–
B3	–	–	–	–	Kd [5]: 0.3 ± 0.01 nM; Kd [6]: 5.2 ± 0.2 nM; Kd [7]: 0.6 ± 0.09 nM
